Assay results: the supplement of paper PMC9233669
Variants at the floor of the assay were thinned out.

Experiments:
biotinyl-Trp-oxazolone = assay: self-aminoacylation, catalytic enhancement (BWO) (fold over background); higher = more active; k-Seq, kA / k0A0; sequences stand for … in GGGAAUGGAUCCACAUCUACGAAUUC…UUCACUGCAGACUUGACGAAGCUG
Outline: (§1)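 Mutagenized RNA pools with a 21-nt variable region (0.43 μM) reacted with each biotinyl-aminoacyl-oxazolone at 2–1250 μM. Reactions ran in 50 μL HEPES/NaCl/KCl/MgCl2/CaCl2 buffer with 5% acetonitrile, pH 6.9–7.0, for 90 minutes at room temperature. Streptavidin-captured RNA was quantified by triplicate qPCR and Illumina sequencing, and per-sequence fraction reacted was fit to a pseudo-first-order model with 1000 bootstraps. Catalytic enhancement is median kA divided by the uncatalyzed rate, the low-activity peak of a bimodal Gaussian fit.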

biotinyl-Ile-oxazolone = assay: self-aminoacylation, catalytic enhancement (BIO) (fold over background); higher = more active; k-Seq, kA / k0A0; sequences stand for … in GGGAAUGGAUCCACAUCUACGAAUUC…UUCACUGCAGACUUGACGAAGCUG
Outline: as §1

biotinyl-Met-oxazolone = assay: self-aminoacylation, catalytic enhancement (BMO) (fold over background); higher = more active; k-Seq, kA / k0A0; sequences stand for … in GGGAAUGGAUCCACAUCUACGAAUUC…UUCACUGCAGACUUGACGAAGCUG
Outline: as §1

biotinyl-Leu-oxazolone = assay: self-aminoacylation, catalytic enhancement (BLO) (fold over background); higher = more active; k-Seq, kA / k0A0; sequences stand for … in GGGAAUGGAUCCACAUCUACGAAUUC…UUCACUGCAGACUUGACGAAGCUG
Outline: as §1

biotinyl-Phe-oxazolone = assay: self-aminoacylation, catalytic enhancement (BFO) (fold over background); higher = more active; k-Seq, kA / k0A0; sequences stand for … in GGGAAUGGAUCCACAUCUACGAAUUC…UUCACUGCAGACUUGACGAAGCUG
Outline: as §1

biotinyl-Val-oxazolone = assay: self-aminoacylation, catalytic enhancement (BVO) (fold over background); higher = more active; k-Seq, kA / k0A0; sequences stand for … in GGGAAUGGAUCCACAUCUACGAAUUC…UUCACUGCAGACUUGACGAAGCUG
Outline: as §1

Sequence | self-aminoacylation (biotinyl-Trp-oxazolone) | self-aminoacylation (biotinyl-Ile-oxazolone) | self-aminoacylation (biotinyl-Met-oxazolone) | self-aminoacylation (biotinyl-Leu-oxazolone) | self-aminoacylation (biotinyl-Phe-oxazolone) | self-aminoacylation (biotinyl-Val-oxazolone)
CUACUUCAAACAUUCGGUCUA [Fam1A.1 aminoacylation ribozyme variant] | 0.89 | 1.03 | 0.882 | 0.766 | 0.783 | 1.02
CUACUUCAAACAUUCGGUUUG [Fam1A.1 aminoacylation ribozyme variant] | 1.43 | 1.17 | 1.05 | 0.962 | 0.613 | 1.2
CUACUUCAAACAUUCUGUCUG [Fam1A.1 aminoacylation ribozyme variant] | 0.543 | 0.822 | 0.7 | 0.727 | 0.851 | 0.79
CUACUUCAAACCACCGGUCUG [Fam1A.1 aminoacylation ribozyme variant] | 1.25 | 1.03 | 1.09 | 0.795 | 0.963 | 0.954
CUACUUCAAACCAUCCGUCUG [Fam1A.1 aminoacylation ribozyme variant] | 0.802 | 0.891 | 0.891 | 0.721 | 0.573 | 1.14
CUACUUCAAACCAUCGAUCUG [Fam1A.1 aminoacylation ribozyme variant] | 0.581 | 0.685 | 0.614 | 0.529 | 0.733 | 0.777
CUACUUCAAACCAUCGGUCUC [Fam1A.1 aminoacylation ribozyme variant] | 0.731 | 0.708 | 0.555 | 0.496 | 0.936 | 0.72
CUACUUCAAACCAUCGUUCUG [Fam1A.1 aminoacylation ribozyme variant] | 0.478 | 0.689 | 0.525 | 0.553 | 0.66 | 0.59
CUACUUCAAACCGUCGGUCUG [Fam1A.1 aminoacylation ribozyme variant] | 0.872 | 0.831 | 0.847 | 0.71 | 0.289 | 0.917
CUACUUCAAACGAUCAGUCUG [Fam1A.1 aminoacylation ribozyme variant] | 0.734 | 0.633 | 0.593 | 0.549 | 1.22 | 0.751
CUACUUCAAACGCUCGGUCUG [Fam1A.1 aminoacylation ribozyme variant] | 0.637 | 0.741 | 0.592 | 1.09 | 0.793 | 0.828
CUACUUCAAACUACCGGUCUG [Fam1A.1 aminoacylation ribozyme variant] | 0.846 | 1.1 | 0.809 | 0.868 | 0.75 | 0.832
CUACUUCAAACUAUCGGUAUG [Fam1A.1 aminoacylation ribozyme variant] | 0.665 | 0.715 | 0.557 | 0.601 | 0.842 | 0.813
CUACUUCAAACUAUCGGUCUA [Fam1A.1 aminoacylation ribozyme variant] | 0.62 | 0.944 | 0.729 | 0.696 | 1.08 | 0.912
CUACUUCAAACUAUCGGUCUU [Fam1A.1 aminoacylation ribozyme variant] | 0.796 | 1.03 | 0.833 | 0.822 | 0.957 | 0.968
CUACUUCAAACUAUUGGUCUG [Fam1A.1 aminoacylation ribozyme variant] | 0.501 | 0.995 | 0.897 | 0.92 | 0.825 | 0.869
CUACUUCAAAGAAUCGAUCUG [Fam1A.1 aminoacylation ribozyme variant] | 0.506 | 0.679 | 0.454 | 0.615 | 0.544 | 0.595
CUACUUCAAAGAAUCGGUCUU [Fam1A.1 aminoacylation ribozyme variant] | 2.13 | 1.29 | 0.926 | 1.14 | 2.46 | 1.06
CUACUUCAAAGAAUUGGUCUG [Fam1A.1 aminoacylation ribozyme variant] | 0.806 | 1.18 | 0.954 | 1.08 | 0.605 | 0.912
CUACUUCAAAGAUUCGGUCUG [Fam1A.1 aminoacylation ribozyme variant] | 0.679 | 1.01 | 1.09 | 0.97 | 0.503 | 1.08
CUACUUCAAAGCAUCGGUCUG [Fam1A.1 aminoacylation ribozyme variant] | 0.794 | 0.857 | 0.802 | 0.898 | 0.786 | 0.939
CUACUUCAAAGGAUCGGUCUG [Fam1A.1 aminoacylation ribozyme variant] | 0.738 | 0.925 | 1.04 | 0.912 | 0.753 | 0.902
CUACUUCAACCAAUCAGUCUG [Fam1A.1 aminoacylation ribozyme variant] | 5.54 | 0.747 | 0.541 | 0.794 | 13.9 | 0.701
CUACUUCAACCAAUCGGACUG [Fam1A.1 aminoacylation ribozyme variant] | 4.9 | 0.79 | 0.814 | 0.851 | 10.7 | 0.946
CUACUUCAACGAAUCGGUCUG [Fam1A.1 aminoacylation ribozyme variant] | 3.92 | 0.847 | 0.753 | 1.02 | 4.58 | 0.833
CUACUUCAAGCAAUCGGGCUG [Fam1A.1 aminoacylation ribozyme variant] | 3.87 | 2.01 | 1.8 | 2.58 | 3.43 | 1.61

Sequence | self-aminoacylation (biotinyl-Trp-oxazolone) | self-aminoacylation (biotinyl-Ile-oxazolone) | self-aminoacylation (biotinyl-Met-oxazolone) | self-aminoacylation (biotinyl-Leu-oxazolone) | self-aminoacylation (biotinyl-Phe-oxazolone) | self-aminoacylation (biotinyl-Val-oxazolone)
CUACUUCAAGCAAUCGGUAUG [Fam1A.1 aminoacylation ribozyme variant] | 4.52 | 0.94 | 1.07 | 1.02 | 8.16 | 0.963
CUACUUCAAGCAAUCGGUGUG [Fam1A.1 aminoacylation ribozyme variant] | 3.13 | 1.26 | 1.59 | 1.83 | 3.56 | 1.24
CUACUUCAAGCCAUCGGUCUG [Fam1A.1 aminoacylation ribozyme variant] | 0.696 | 0.89 | 0.729 | 1.15 | 0.772 | 1.04
CUACUUCAAUCAAACGGUCUG [Fam1A.1 aminoacylation ribozyme variant] | 0.481 | 0.637 | 0.639 | 0.671 | 0.638 | 0.794
CUACUUCAAUCAAUCGGUCGG [Fam1A.1 aminoacylation ribozyme variant] | 12.2 | 1.15 | 1.39 | 1.47 | 15.8 | 1.04
CUACUUCAAUCAAUCGGUCUA [Fam1A.1 aminoacylation ribozyme variant] | 7.18 | 0.972 | 0.871 | 1.02 | 13.7 | 0.914
CUACUUCAAUCAAUCGGUCUG [Fam1A.1 aminoacylation ribozyme variant] | 17.9 | 1.01 | 1.04 | 1.44 | 31.7 | 1.03
CUACUUCAAUCAAUCGGUUUG [Fam1A.1 aminoacylation ribozyme variant] | 15.1 | 0.895 | 0.886 | 1.21 | 26.6 | 0.96
CUACUUCAAUCACUCGGUCUG [Fam1A.1 aminoacylation ribozyme variant] | 0.688 | 0.866 | 0.68 | 0.746 | 0.649 | 0.835
CUACUUCAAUCUAUCGGUCUG [Fam1A.1 aminoacylation ribozyme variant] | 0.936 | 0.888 | 0.902 | 0.836 | 1.28 | 0.907
CUACUUCACACAAUCGGCCUG [Fam1A.1 aminoacylation ribozyme variant] | 1.72 | 1.69 | 1.75 | 1.75 | 0.896 | 1.86
CUACUUCACACAAUCGGUCUA [Fam1A.1 aminoacylation ribozyme variant] | 0.777 | 0.72 | 0.626 | 0.802 | 0.822 | 0.834
CUACUUCACACAAUCGUUCUG [Fam1A.1 aminoacylation ribozyme variant] | 0.392 | 0.649 | 0.477 | 0.484 | 0.66 | 0.61
CUACUUCACGCAAUCGGUCUG [Fam1A.1 aminoacylation ribozyme variant] | 0.819 | 0.837 | 0.912 | 0.711 | 0.929 | 0.908
CUACUUCAGACAAUCGGUCUC [Fam1A.1 aminoacylation ribozyme variant] | 0.825 | 0.936 | 0.857 | 0.895 | 1.09 | 0.977
CUACUUCAGACAAUCGGUCUG [Fam1A.1 aminoacylation ribozyme variant] | 0.857 | 0.782 | 0.758 | 0.807 | 1.19 | 0.822
CUACUUCAGACACUCGGUCUG [Fam1A.1 aminoacylation ribozyme variant] | 1.03 | 1.2 | 1.49 | 1.52 | 1.77 | 1.54
CUACUUCAGACCAUCGGUCUG [Fam1A.1 aminoacylation ribozyme variant] | 0.856 | 1.1 | 1.25 | 1.14 | 1.06 | 1.07
CUACUUCAGCCAAUCGGUCUG [Fam1A.1 aminoacylation ribozyme variant] | 0.425 | 0.691 | 0.713 | 0.842 | 0.64 | 0.673
CUACUUCAUAAAAUCGGUCUG [Fam1A.1 aminoacylation ribozyme variant] | 0.389 | 0.656 | 0.699 | 0.622 | 0.567 | 0.641
CUACUUCAUACAAUCGAUCUG [Fam1A.1 aminoacylation ribozyme variant] | 0.601 | 0.657 | 0.653 | 0.505 | 0.752 | 0.806
CUACUUCAUACAAUCGGUCUU [Fam1A.1 aminoacylation ribozyme variant] | 0.491 | 1.01 | 0.724 | 0.844 | 0.932 | 0.972
CUACUUCAUACAAUCUGUCUG [Fam1A.1 aminoacylation ribozyme variant] | 0.424 | 0.668 | 0.64 | 0.566 | 0.66 | 0.682
CUACUUCAUACAAUUGGUCUG [Fam1A.1 aminoacylation ribozyme variant] | 0.453 | 0.743 | 0.755 | 0.731 | 0.656 | 0.849
CUACUUCAUACAGUCGGUCUG [Fam1A.1 aminoacylation ribozyme variant] | 0.282 | 0.574 | 0.52 | 0.556 | 0.496 | 0.67
